The target in experiment [1] is T1, human recombinant TNFα (fully intact trimeric TNFα) (human, UniProt P01375 77-233).
T1 construct: also called hrTNFα
The experiment is described as follows: SPR, TT10F7 captured, TNFα (52 kDa trimer) in solution, - TWEEN 20. The protocol:
(§1) The samples were diluted in the instrument's buffer. In another embodiment the buffer was HBS-E buffer (10 mM HEPES pH 7.4, 150 mM NaCl, 3 mM EDTA) and the samples were diluted in the detergent-free buffer. The system operated at 25° C. 10000 RU GAR-Fcγ (relative units of Fcγ-fragment binding, polyclonal goat anti-Rabbit IgG/Jackson Laboratories) were immobilized according to the manufacturer's instructions using EDC/NHS chemistry on all 4 flow cells. The sensor is finally deactivated using 1M ethanolamine. […] A monoclonal rabbit anti-Thermus thermophilus SlyD core protein (0612pS3A8) binding antibody, was captured in all flow cells by a 6 min injection at 5 μl/min. […] Flow cell 1 served as a reference. […] The Thermus thermophilus SlyD-FKBP clones were specifically captured on the sensor by a 2 min injection at 30 μl/min directly from a 1:25 diluted 10000 g-centrifuged E. coli lysate supernatant.
(§2) The flow rate was set to 100 μl/min. […] The dissociation was monitored for 5 minutes.
(In general: Surface plasmon resonance follows binding to a sensor surface in real time, without labels.)

Experiment [2] addresses T1, human recombinant TNFα (fully intact …). Nature of the experiment: SPR, TT10F7 captured, TNFα (52 kDa trimer) in solution, + TWEEN 20. How it is done:
as §1, §2

The target in experiment [3] is Streptavidin (11897000, Roche) (UniProt P22629 37-163, limits assumed). The experiment is described as follows: SPR, TT10F7 captured via anti-SlyD antibody, streptavidin in solution. How it is done: as §1, §2
Sequence of Streptavidin (11897000, Roche) (P22629 37-163 limits assumed): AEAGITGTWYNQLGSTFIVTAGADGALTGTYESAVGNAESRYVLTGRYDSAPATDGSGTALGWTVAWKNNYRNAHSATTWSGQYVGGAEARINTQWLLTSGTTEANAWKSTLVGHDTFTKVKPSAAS
The target in experiment [4] is T1, human recombinant TNFα (fully intact …). The experiment is described as follows: SPR BIACORE 3000, TT10F7 captured via anti-SlyD antibody, trimeric TNFα as analyte. How it is done:
as §1, with “A CM5 series sensor was mounted into the system and was normalized in HBS-ET buffer (10 mM HEPES pH 7.4, 150 mM NaCl, 3 mM EDTA, 0.005% w/v Tween 20) according to the manufacturer's instructions. The samples” for “The samples”
as §2

Experiment [5] has the same target. Nature of the experiment: SPR, C10B9 captured via anti-SlyD antibody, TNFα in solution. The protocol:
as §1, §2

This note sets out measurements from patent US20260193638A1 (ROCHE DIAGNOSTICS OPERATIONS, published 2026).

T1 sequence (P01375 77-233 limits assumed): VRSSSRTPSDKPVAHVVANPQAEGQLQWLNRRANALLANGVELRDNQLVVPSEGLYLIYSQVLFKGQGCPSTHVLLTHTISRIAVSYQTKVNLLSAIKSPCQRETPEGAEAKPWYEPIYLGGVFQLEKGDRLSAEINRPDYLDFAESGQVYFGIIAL

B1: Thermus thermophilus SlyD-FKBP TT10F7 (designed binder)
chain: MRSKVGQDKVVTIRYTLQVEGEVLDQGELSYLHGHRNLIPGLEEALEGREEGEAFQAHVPAEKAYGAGSWKPHFNLHLLYLIGSSGKDLDFQVEVVKVREATPEELLHGHAHGGAAAGLNDIFEAQKIEWHEGSRKHHHHHHHH
notes: captured on the sensor directly from E. coli lysate; also called TT10F7 mutant; TT10F7 T.t.SlyD-FKBP12
In general, Kd refers to the constant that tells how readily two partners part at equilibrium. The koff is the rate constant with which the complex falls apart. The kon is a measure of how fast the partners come together. As for B1, in experiment [1], the Kd was 262 nM, the off-rate constant (koff) is 0.00103 s⁻¹ and the kon came out at 3960 M⁻¹ s⁻¹. In experiment [2], the equilibrium dissociation constant (Kd) was 258 nM, the off-rate constant (koff) was determined as 0.00268 s⁻¹ and the on-rate (kon) came out at 10400 M⁻¹ s⁻¹. The binding result in experiment [3] is recorded as “no binding (tested: 1 µM)”. In experiment [4], the stoichiometry lay within 3 to 1.

B2: Thermus thermophilus SlyD-FKBP clone C10B9 (designed binder)
chain: MRSKVGQDKVVTIRYTLQVEGEVLDQGELSYLHGHRNLIPGLEEALEGREEGEAFQAHVPAEKAYGAGSYYVLITDNLVYFGGSSGKDLDFQVEVVKVREATPEELLHGHGGAAAGLNDIFEAQKIEWHEGSRKHHHHHHHH
notes: also called C10B9 mutant
As to B2, in experiment [5], the binding result is reported as “no binding (tested: 1 µM)”.
